To fix the notation:
B1: Succinate dehydrogenase [ubiquinone] iron-sulfur subunit, mitochondrial (Homo sapiens), P21912 (parent)
chain: MAAVVALSLRRRLPATTLGGACLQASRGAQTAAATAPRIKKFAIYRWDPDKAGDKPHMQTYEVDLNKCGPMVLDALIKIKNEVDSTLTFRRSCREGICGSCAMNINGGNTLACTRRIDTNLNKVSKIYPLPHMYVIKDLVPDLSNFYAQYKSIEPYLKKKDESQEGKQQYLQSIEEREKLDGLYECILCACCSTSCPSYWWNGDKYLGPAVLMQAYRWMIDSRDDFTEERLAKLQDPFSLYRCHTIMNCTRTCPKGLNPGKAIAEIKKMMATYKEKKASV
partner: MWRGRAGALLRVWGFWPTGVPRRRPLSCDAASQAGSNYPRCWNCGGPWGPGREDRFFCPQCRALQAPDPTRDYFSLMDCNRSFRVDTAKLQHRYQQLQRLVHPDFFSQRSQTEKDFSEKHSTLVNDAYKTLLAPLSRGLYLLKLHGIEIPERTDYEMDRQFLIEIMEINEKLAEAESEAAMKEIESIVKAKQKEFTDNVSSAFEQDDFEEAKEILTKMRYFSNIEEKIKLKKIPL

Variants of B1 are the subject of the first assay. As to conditions: with hsc20_human HSCB.
For the variant I44A, the “effect of a mutation on the interaction” value is on record as “disrupting interaction strength”.

Variants of B1 are the subject of another assay. Particulars: with hsc20_human HSCB. The source holds these as a separate data set.
As for L240A, the “effect of a mutation on the interaction” value is listed as “disrupting interaction strength”.

The variants in a further assay derive from B1. Particulars: with hsc20_human HSCB. This is another data set of the same source.
Regarding K276A;K277A, the “effect of a mutation on the interaction” value was “disrupting interaction”.
As to K267A;K268A, the “effect of a mutation on the interaction” value was “disrupting interaction strength”.
